Reference: patent US20160053258

How the values were obtained:
[1] = biological target: T1, full-length 6×HIS-LIN28B, Q6ZN17
T1 chain: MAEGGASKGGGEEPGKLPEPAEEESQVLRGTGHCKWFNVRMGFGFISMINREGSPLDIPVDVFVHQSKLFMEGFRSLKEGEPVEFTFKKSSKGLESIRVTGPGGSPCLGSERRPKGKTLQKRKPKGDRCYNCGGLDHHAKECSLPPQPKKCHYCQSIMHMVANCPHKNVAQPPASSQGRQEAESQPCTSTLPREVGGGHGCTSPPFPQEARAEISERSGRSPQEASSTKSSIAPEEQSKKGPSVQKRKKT

[2] = biological target: T2, 6×HIS-LIN28A (1-124), Q9H9Z2
T2 chain: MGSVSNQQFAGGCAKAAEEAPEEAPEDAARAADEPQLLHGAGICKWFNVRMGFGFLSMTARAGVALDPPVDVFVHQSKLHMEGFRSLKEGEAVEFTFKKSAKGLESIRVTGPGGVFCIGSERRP

[3] = biological target: T3, 6×HIS-LIN28A (125-209), Q9H9Z2
T3 chain: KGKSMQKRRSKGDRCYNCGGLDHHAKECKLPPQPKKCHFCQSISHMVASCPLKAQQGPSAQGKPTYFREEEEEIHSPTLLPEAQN

[4] = biological target: T4, 6×HIS-LIN28A (157-209), Q9H9Z2
T4 chain: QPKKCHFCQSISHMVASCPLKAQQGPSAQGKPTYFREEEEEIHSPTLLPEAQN

[5] = biological target: T5, 6×HIS-LIN28A-K135R, Q9H9Z2
T5 chain: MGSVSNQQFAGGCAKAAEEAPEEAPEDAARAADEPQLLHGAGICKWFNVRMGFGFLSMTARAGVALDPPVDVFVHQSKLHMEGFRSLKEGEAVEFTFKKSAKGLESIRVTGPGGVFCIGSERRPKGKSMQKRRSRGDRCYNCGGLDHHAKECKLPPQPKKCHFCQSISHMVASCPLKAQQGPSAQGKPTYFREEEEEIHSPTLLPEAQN

[6] = biological target: T6, 6×HIS-labeled human LIN28A (full-length), Q9H9Z2
T6 chain: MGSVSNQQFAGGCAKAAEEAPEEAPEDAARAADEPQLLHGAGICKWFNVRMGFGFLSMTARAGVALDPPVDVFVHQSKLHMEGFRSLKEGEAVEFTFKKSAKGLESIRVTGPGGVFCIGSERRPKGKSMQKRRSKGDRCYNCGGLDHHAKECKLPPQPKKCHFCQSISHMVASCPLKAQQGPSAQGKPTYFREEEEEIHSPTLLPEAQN

[7] = biological target: T7, 6×HIS-LIN28A (125-156), Q9H9Z2
T7 chain: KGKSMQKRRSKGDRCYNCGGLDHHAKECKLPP

B1: recombinant full-length SET7/9 expressed in bacteria (protein)
chain: MDSDDEMVEEAVEGHLDDDGLPHGFCTVTYSSTDRFEGNFVHGEKNGRGKFFFFDGSTLEGYYVDDALQGQGVYTYEDGGVLQGTYVDGELNGPAQEYDTDGRLIFKGQYKDNIRHGVCWIYYPDGGSLVGEVNEDGEMTGEKIAYVYPDERTALYGKFIDGEMIEGKLATLMSTEEGRPHFELMPGNSVYHFDKSTSSCISTNALLPDPYESERVYVAESLISSAGEGLFSKVAVGPNTVMSFYNGVRITHQEVDSRDWALNGNTLSLDEETVIDVPEPYNHVSKYCASLGHKANHSFTPNCIYDMFVHPRFGPIKCIRTLRAVEADEELTVAYGYDHSPPGKSGPEAPEWYQVELKAFQATQQK
- methylation (in vitro methyl transferase analysis) [1]: LIN28B was not methylated by SET7/9
- methylation (in vitro methyl transferase assay) [2]: LIN28A (1-124) and (157-209) without lysine 135 were not methylated
- methylation (in vitro methyl transferase assay) [3]: only LIN28A (125-209) and (125-156) having lysine 135 among 4 fragments were methylated by SET7/9
- methylation (in vitro methyl transferase assay) [4]: LIN28A (1-124) and (157-209) without lysine 135 were not methylated
- methylation (in vitro methyl transferase assay) [5]: a methylation reaction by SET7/9 was completely removed in K135 mutant
- enzyme activity (in vitro methyltransferase assay with [3H] SAM) [6]: all HMTases except for SET7/9 did not show enzyme activity with respect to LIN28A
- methylation (in vitro methyltransferase assay with [3H] SAM) [6]: LIN28A was methylated by SET7/9 in vitro
- methylation (in vitro methyl transferase assay) [7]: only LIN28A (125-209) and (125-156) having lysine 135 among 4 fragments were methylated by SET7/9
